Experimental data: the Immune Epitope Database (IEDB)

What was measured:
HLA-A*01:01 [1] = assay: IEDB peptide-MHC binding, purified MHC/direct/fluorescence; filed as Kd, often an IC50 or EC50 that approximates it; ≥ and ≤ were set here for values at or beyond the usual limits of such assays
HLA-A*02:01 [2] = assay: as above
HLA-A*26:01 = assay: as above
HLA-A*68:02 [3] = assay: as above; conditions: source organism: Marburg virus - Musoke, Kenya, 1980
HLA-A*69:01 = assay: as above
HLA-B*07:02 = assay: as above; conditions: source organism: Marburg virus - Musoke, Kenya, 1980
HLA-B*08:01 [4] = assay: as above
HLA-B*08:02 = assay: as above; conditions: source organism: Ravn virus - Ravn, Kenya, 1987
HLA-B*15:09 = assay: as above; conditions: source organism: Ravn virus - Ravn, Kenya, 1987
HLA-B*18:01 = assay: as above
HLA-B*27:05 = assay: as above
HLA-B*38:01 = assay: as above
HLA-B*39:01 = assay: as above
HLA-B*40:01 = assay: as above
HLA-B*46:01 = assay: as above
HLA-B*48:01 = assay: as above
HLA-B*57:01 = assay: as above
HLA-B*58:01 = assay: as above
HLA-A*26:02 = assay: IEDB peptide-MHC binding, purified MHC/competitive/fluorescence; filed as Kd, often an IC50 or EC50 that approximates it; ≥ and ≤ were set here for values at or beyond the usual limits of such assays; conditions: source organism: Orthomarburgvirus marburgense
HLA-B*15:01 [5] = assay: as above; conditions: source organism: Orthomarburgvirus marburgense
HLA-B*15:17 [6] = assay: as above; conditions: source organism: Orthomarburgvirus marburgense
HLA-B*35:01 = assay: as above; conditions: source organism: Orthomarburgvirus marburgense
HLA-A*03:01 = assay: IEDB peptide-MHC binding, purified MHC/direct/fluorescence; filed as Kd, often an IC50 or EC50 that approximates it; ≥ and ≤ were set here for values at or beyond the usual limits of such assays; conditions: source organism: Mycobacterium tuberculosis
HLA-A*11:01 = assay: as above; conditions: source organism: Mycobacterium tuberculosis
HLA-A*31:01 = assay: as above; conditions: source organism: Mycobacterium tuberculosis
HLA-B*15:01 [7] = assay: as above
HLA-B*15:17 [8] = assay: as above; conditions: source organism: Mycobacterium tuberculosis
HLA-B*51:01 = assay: as above; conditions: source organism: Mycobacterium tuberculosis
HLA-A*24:02 [9] = assay: IEDB peptide-MHC binding, purified MHC/competitive/fluorescence; ≥ and ≤ were set here for values at or beyond the usual limits of such assays
HLA-B*08:01 [10] = assay: as above
HLA-B*15:01 [11] = assay: as above; conditions: source organism: Zaire ebolavirus
HLA-A*24:02 [12] = assay: IEDB peptide-MHC binding, purified MHC/competitive/fluorescence; filed as Kd, often an IC50 or EC50 that approximates it; ≥ and ≤ were set here for values at or beyond the usual limits of such assays
HLA-C*04:01 = assay: IEDB peptide-MHC binding, purified MHC/direct/fluorescence; filed as Kd, often an IC50 or EC50 that approximates it; ≥ and ≤ were set here for values at or beyond the usual limits of such assays
HLA-A*02:01 [13] = assay: IEDB peptide-MHC binding, purified MHC/competitive/fluorescence; ≥ and ≤ were set here for values at or beyond the usual limits of such assays; conditions: source organism: Variola virus
HLA-C*03:03 = assay: IEDB peptide-MHC binding, purified MHC/direct/fluorescence; filed as Kd, often an IC50 or EC50 that approximates it; ≥ and ≤ were set here for values at or beyond the usual limits of such assays; conditions: source organism: Orthomarburgvirus marburgense
HLA-A*01:01 [14] = assay: IEDB peptide-MHC binding, purified MHC/competitive/fluorescence; filed as Kd, often an IC50 or EC50 that approximates it; ≥ and ≤ were set here for values at or beyond the usual limits of such assays; conditions: source organism: Orthomarburgvirus marburgense
HLA-A*02:01 [15] = assay: as above; conditions: source organism: Orthomarburgvirus marburgense
HLA-A*02:06 = assay: as above; conditions: source organism: Orthomarburgvirus marburgense
HLA-A*68:02 [16] = assay: as above; conditions: source organism: Orthomarburgvirus marburgense
HLA-B*08:01 [17] = assay: as above; conditions: source organism: Mycobacterium tuberculosis variant bovis BCG str. Pasteur 1173P2
[18] = source organism: Marburg virus - Musoke, Kenya, 1980
[19] = source organism: Ravn virus - Ravn, Kenya, 1987
[20] = source organism: Mycobacterium tuberculosis
[21] = source organism: Mycobacterium tuberculosis str. Haarlem
[22] = source organism: Zaire ebolavirus
[23] = source organism: Salmonella enterica subsp. enterica serovar Typhi str. CT18
[24] = source organism: Vaccinia virus Copenhagen
[25] = source organism: Rickettsia typhi str. Wilmington

## IHLDKGGQF
HLA-A*01:01 [1]; [18]
  Kd: ≥ 20 µM
HLA-A*02:01 [2]; [18]
  Kd: ≥ 20 µM
HLA-A*26:01; [19]
  Kd: ≥ 20 µM
HLA-A*68:02 [3]
  Kd: ≥ 20 µM
HLA-A*69:01; [18]
  Kd: ≥ 20 µM
HLA-B*07:02
  Kd: ≥ 20 µM
HLA-B*08:01 [4]; [19]
  Kd: ≥ 20 µM
HLA-B*08:02
  Kd: ≥ 20 µM
HLA-B*15:09
  Kd: 7.14 µM
HLA-B*18:01; [18]
  Kd: ≥ 20 µM
HLA-B*27:05; [18]
  Kd: ≥ 20 µM
HLA-B*38:01; [19]
  Kd: ≥ 20 µM
HLA-B*39:01; [18]
  Kd: ≥ 20 µM
HLA-B*40:01; [18]
  Kd: ≥ 20 µM
HLA-B*46:01; [18]
  Kd: ≥ 20 µM
HLA-B*48:01; [18]
  Kd: ≥ 20 µM
HLA-B*57:01; [18]
  Kd: ≥ 20 µM
HLA-B*58:01; [18]
  Kd: ≥ 20 µM
HLA-A*26:02
  Kd: ≥ 20 µM
HLA-B*15:01 [5]
  Kd: ≥ 20 µM
HLA-B*15:17 [6]
  Kd: ≥ 20 µM
HLA-B*35:01
  Kd: ≥ 20 µM

## APAKKAAPA
HLA-A*01:01 [1]; [20]
  Kd: ≥ 20 µM
HLA-A*02:01 [2]; [20]
  Kd: ≥ 20 µM
HLA-A*03:01
  Kd: ≥ 20 µM
HLA-A*11:01
  Kd: ≥ 20 µM
HLA-A*31:01
  Kd: ≥ 20 µM
HLA-A*69:01; [20]
  Kd: ≥ 20 µM
HLA-B*08:01 [4]; [21]
  Kd: 0.077 µM
HLA-B*15:01 [7]; [20]
  Kd: ≥ 20 µM
HLA-B*15:17 [8]
  Kd: ≥ 20 µM
HLA-B*18:01; [20]
  Kd: ≥ 20 µM
HLA-B*27:05; [20]
  Kd: ≥ 20 µM
HLA-B*38:01; [21]
  Kd: ≥ 20 µM
HLA-B*39:01; [21]
  Kd: ≥ 20 µM
HLA-B*40:01; [20]
  Kd: ≥ 20 µM
HLA-B*46:01; [20]
  Kd: ≥ 20 µM
HLA-B*48:01; [20]
  Kd: ≥ 20 µM
HLA-B*51:01
  Kd: ≥ 20 µM
HLA-B*57:01; [20]
  Kd: ≥ 20 µM
HLA-B*58:01; [20]
  Kd: ≥ 20 µM

## DRFKRTSFF
HLA-A*24:02 [9]; [22]
  IC50: 1.22 µM
HLA-B*08:01 [10]; [22]
  IC50: 5.43 µM
HLA-B*15:01 [11]
  IC50: ≥ 181 µM

## VMPLLVWLF
HLA-A*24:02 [12]; source organism: Campylobacter jejuni subsp. jejuni NCTC 11168 = ATCC 700819
  Kd: 0.0029 µM

## IYASRPLDF
HLA-C*04:01; [23]
  Kd: ≥ 20 µM
HLA-A*24:02 [12]; [23]
  Kd: ≤ 0.0001 µM

## GYFLKIKVT
HLA-A*24:02 [9]; [24]
  IC50: ≥ 215 µM
HLA-B*08:01 [10]; [24]
  IC50: ≥ 231 µM

## LSLPRIALV
HLA-A*02:01 [13]
  IC50: 0.617 µM
HLA-B*08:01 [10]; source organism: Variola virus
  IC50: ≥ 285 µM

## IYYWTAWLI
HLA-C*04:01; [25]
  Kd: ≥ 20 µM
HLA-A*24:02 [12]; [25]
  Kd: 0.0017 µM

## ISDPLTSGL
HLA-A*26:01; [19]
  Kd: ≥ 20 µM
HLA-B*07:02
  Kd: ≥ 20 µM
HLA-B*08:01 [4]; [19]
  Kd: ≥ 20 µM
HLA-B*15:01 [7]; [18]
  Kd: ≥ 20 µM
HLA-B*18:01; [18]
  Kd: ≥ 20 µM
HLA-B*27:05; [18]
  Kd: ≥ 20 µM
HLA-B*38:01; [19]
  Kd: 5.03 µM
HLA-B*39:01; [18]
  Kd: ≥ 20 µM
HLA-B*40:01; [18]
  Kd: ≥ 20 µM
HLA-B*46:01; [18]
  Kd: ≥ 20 µM
HLA-B*48:01; [18]
  Kd: ≥ 20 µM
HLA-B*57:01; [18]
  Kd: ≥ 20 µM
HLA-B*58:01; [18]
  Kd: 0.415 µM
HLA-C*03:03
  Kd: ≥ 20 µM
HLA-A*01:01 [14]
  Kd: 1.03 µM
HLA-A*02:01 [15]
  Kd: 0.0681 µM
HLA-A*02:06
  Kd: 0.0206 µM
HLA-A*68:02 [16]
  Kd: ≥ 20 µM
HLA-B*15:17 [6]
  Kd: 0.0132 µM
HLA-B*35:01
  Kd: ≥ 20 µM

## SPRSRNRSF
HLA-A*01:01 [1]; [20]
  Kd: ≥ 20 µM
HLA-A*02:01 [2]; [20]
  Kd: ≥ 20 µM
HLA-A*03:01
  Kd: ≥ 20 µM
HLA-A*11:01
  Kd: ≥ 20 µM
HLA-A*26:01; [21]
  Kd: ≥ 20 µM
HLA-A*31:01
  Kd: ≥ 20 µM
HLA-A*69:01; [20]
  Kd: ≥ 20 µM
HLA-B*15:01 [7]; [20]
  Kd: ≥ 20 µM
HLA-B*15:17 [8]
  Kd: ≥ 20 µM
HLA-B*18:01; [20]
  Kd: ≥ 20 µM
HLA-B*27:05; [20]
  Kd: ≥ 20 µM
HLA-B*38:01; [21]
  Kd: ≥ 20 µM
HLA-B*39:01; [21]
  Kd: ≥ 20 µM
HLA-B*40:01; [20]
  Kd: ≥ 20 µM
HLA-B*46:01; [20]
  Kd: ≥ 20 µM
HLA-B*48:01; [20]
  Kd: ≥ 20 µM
HLA-B*51:01
  Kd: ≥ 20 µM
HLA-B*57:01; [20]
  Kd: ≥ 20 µM
HLA-B*58:01; [20]
  Kd: ≥ 20 µM
HLA-B*08:01 [17]
  Kd: 0.123 µM
